B1: human MICA (Acro, MIA-H5221) (ligand, UniProt Q29983 24-307, looked up)
chain: EPHSLRYNLTVLSWDGSVQSGFLTEVHLDGQPFLRCDRQKCRAKPQGQWAEDVLGNKTWDRETRDLTGNGKDLRMTLAHIKDQKEGLHSLQEIRVCEIHEDNSTRSSQHFYYDGELFLSQNLETKEWTMPQSSRAQTLAMNVRNFLKEDAMKTKTHYHAMHADCLQELRRYLKSGVVLRRTVPPMVNVTRSEASEGNITVTCRASGFYPWNITLSWRQDGVSLSHDTQQWGDVLPDGNGTYQTWVATRICQGEEQRFTCYMEHSGNHSTHPVPSGKVLVLQSHW
notes: Bought reagent used as analyte in solution; also called NKG2D ligand MICA

Legend:
[1] = target: B1; assay: BLI (Octet); GNC protein loaded on AHC sensors at 5 ug/ml; human MICA as analyte, 1:2 serial dilutions from 100 nM; global fit, 1:1 model
Procedure: (§1) To validate functionality of the NKG2D receptor in the D2 position, Octet binding was performed. GNC protein was loaded onto AHC sensors at 5 ug/ml, and subsequently bound to 1:2 serial dilutions (top concentration 100 nM) of human MICA (Acro, MIA-H5221).

SI-49P7 = target: T1, SI-49P7; assay: as above
T1 construct: Penta-specific GNC: same structure as SI-49P6, but with 4-1BB ligand trimer at D4 instead of the anti-4-1BB scFv
Procedure: as §1

T1 sequence (heavy, as listed by the source): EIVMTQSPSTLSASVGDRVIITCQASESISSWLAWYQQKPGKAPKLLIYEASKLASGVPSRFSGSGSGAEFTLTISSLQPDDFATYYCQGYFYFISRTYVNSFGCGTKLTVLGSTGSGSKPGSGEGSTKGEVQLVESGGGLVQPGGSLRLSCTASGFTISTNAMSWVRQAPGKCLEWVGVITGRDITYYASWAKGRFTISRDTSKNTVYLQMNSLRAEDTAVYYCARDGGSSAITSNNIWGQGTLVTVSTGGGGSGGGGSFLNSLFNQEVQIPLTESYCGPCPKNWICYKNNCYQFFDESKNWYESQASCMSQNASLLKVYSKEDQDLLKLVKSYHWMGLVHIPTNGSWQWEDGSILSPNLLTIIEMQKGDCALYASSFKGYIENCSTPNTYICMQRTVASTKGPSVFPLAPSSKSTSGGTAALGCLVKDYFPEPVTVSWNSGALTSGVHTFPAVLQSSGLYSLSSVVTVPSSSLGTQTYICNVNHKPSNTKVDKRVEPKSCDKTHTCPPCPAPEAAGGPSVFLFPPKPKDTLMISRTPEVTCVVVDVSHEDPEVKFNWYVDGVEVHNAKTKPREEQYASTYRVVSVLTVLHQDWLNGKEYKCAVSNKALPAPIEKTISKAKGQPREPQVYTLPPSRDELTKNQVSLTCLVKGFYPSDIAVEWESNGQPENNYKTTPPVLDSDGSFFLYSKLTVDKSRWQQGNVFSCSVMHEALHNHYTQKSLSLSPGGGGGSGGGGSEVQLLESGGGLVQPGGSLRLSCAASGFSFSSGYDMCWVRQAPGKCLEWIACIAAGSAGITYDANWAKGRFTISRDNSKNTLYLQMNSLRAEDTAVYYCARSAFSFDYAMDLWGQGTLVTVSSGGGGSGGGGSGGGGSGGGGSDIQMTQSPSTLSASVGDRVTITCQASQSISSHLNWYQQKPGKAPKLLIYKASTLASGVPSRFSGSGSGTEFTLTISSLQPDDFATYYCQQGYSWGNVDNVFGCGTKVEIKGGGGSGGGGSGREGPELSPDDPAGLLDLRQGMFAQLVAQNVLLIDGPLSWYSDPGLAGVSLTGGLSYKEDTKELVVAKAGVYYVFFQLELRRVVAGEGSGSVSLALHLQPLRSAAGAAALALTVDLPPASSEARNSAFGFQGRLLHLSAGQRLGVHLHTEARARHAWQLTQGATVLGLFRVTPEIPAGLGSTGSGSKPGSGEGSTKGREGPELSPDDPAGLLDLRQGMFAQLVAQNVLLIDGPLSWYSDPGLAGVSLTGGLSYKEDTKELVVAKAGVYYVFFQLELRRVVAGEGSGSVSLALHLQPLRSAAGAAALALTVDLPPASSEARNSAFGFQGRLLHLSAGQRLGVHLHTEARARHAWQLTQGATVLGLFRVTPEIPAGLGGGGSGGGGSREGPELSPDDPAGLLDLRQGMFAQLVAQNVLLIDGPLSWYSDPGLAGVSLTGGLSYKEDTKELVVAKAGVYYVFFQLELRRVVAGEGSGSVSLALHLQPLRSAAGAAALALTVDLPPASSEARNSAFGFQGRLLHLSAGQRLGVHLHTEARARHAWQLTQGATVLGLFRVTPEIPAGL

Row | Kd [1] [nM] | Kd (SI-49P7) [nM] | Binder
1 | 3.93 | – | SI-49R19 (bispecific antibody, Bispecific GNC: anti-CD3 scFv (αCD3-alt) at D1 and NKG2D at D2) heavy: not shown light: FLNSLFNQEVQIPLTESYCGPCPKNWICYKNNCYQFFDESKNWYESQASCMSQNASLLKVYSKEDQDLLKLVKSYHWMGLVHIPTNGSWQWEDGSILSPNLLTIIEMQKGDCALYASSFKGYIENCSTPNTYICMQRTVRTVAAPSVFIFPPSDEQLKSGTASVVCLLNNFYPREAKVQWKVDNALQSGNSQESVTEQDSKDSTYSLSSTLTLSKADYEKHKVYACEVTHQGLSSPVTKSFNRGEC
2 | 14.9 | – | SI-49R23 (Fc fusion, Monospecific protein with NKG2D directly fused to the antibody Fc domain; Two copies are inferred from the Fc dimer) FLNSLFNQEVQIPLTESYCGPCPKNWICYKNNCYQFFDESKNWYESQASCMSQNASLLKVYSKEDQDLLKLVKSYHWMGLVHIPTNGSWQWEDGSILSPNLLTIIEMQKGDCALYASSFKGYIENCSTPNTYICMQRTVASEPKSSDKTHTCPPCPAPEAAGGPSVFLFPPKPKDTLMISRTPEVTCVVVDVSHEDPEVKFNWYVDGVEVHNAKTKPREEQYASTYRVVSVLTVLHQDWLNGKEYKCAVSNKALPAPIEKTISKAKGQPREPQVYTLPPSRDELTKNQVSLTCLVKGFYPSDIAVEWESNGQPENNYKTTPPVLDSDGSFFLYSKLTVDKSRWQQGNVFSCSVMHEALHNHYTQKSLSLSPGK
3 | – | 11.2 | B1
